In the DeepSol protein solubility set:

Assay: soluble on expression in E. coli; label from the status in PepcDB or PDB records

Sequence | soluble on expression in E. coli
MPFVRPLVTVVRAGRHSYSAGLQLQQRLARSNQILNPPAEFRNYLVLQEHDPVYTVGLRTKDYTAQDEDRLRRLGADFHRTDRGGLITFHGPGQLVAYPILHLGQFVPSIRWYVATLERMVVEACHQMGISSAKATKDTGIWVGDNKICAIGIHGSRYVTTHGIGLNCCTDLQWFEHIVPCGIEGKGVTSLSKELDRHFPVEEASGALLNSFAKVFECRLQEHAKKPASSAEIG | not soluble
MSVASLPECVKNFFPTEQLEFSSSITADEKPVLHEVFQKHSCFSQCGEMIDEVSKKHPELGKRLATVLEGNKKRLDGLSPAAVEYAKKLIHMVTTTLCSLTVGKPIDDADAKRLHQEFQSLSSEDQAALRKNNPDIKF | not soluble
SATTVTLEKCGHNKGYKGLDNCRFCPGSQCCVEDGPESIDSIIDMDAVCKRVTTLGLDVSVTISQDAGRYLCDFTYYTSLYQSHGRSAFVHVPPLGKPYNADQLGRALRAIIEEMLDLLEQSEGKINYCHKH | soluble
MSLKANFYKNRVCLNVLAGSVDNAADIYDAAEGHVLVGVLSKNYPDVDTAVEDMKKYSEVTNNAVSVGLGAGDPNQSMMVSLISQHVQPQHINQVFTGVATSRALAGQDKSIVNGLISPTGTVGMVKISTGPLSSRSEDAIVPVETAIAMLKDMGGSSVKYFPMGGLETREEFACVAKACADKDFWLEPTGGIDLENYEEIMQIALDAGVSKIIPHIYSSIIDKATGNTRPEDVKTLLDMTKKLLN | soluble
MSLTTVRMTIPDDFILGAAASAWQTEGWSGKKPGQDSWPDLWYKNDRHVWHNGYGPAVATDFINRFQEDVQLMKLAGLTHYRTSINWSRFLTDYENVTVDEEYAAYYDQLFDALLANGITPMICLEHYELPGYLLEKYGGWGSKTVVELFVRYAEKVFARYHPKVTRWFTFNEPIVVQTRVYLDALRWPYEQNTSTWMQWNYHKVLATASVVKRFRELGYPGTIGCILNPEVTYPRSRAPHDLRAAEIYDLFYNRMFLDPLVHGVWPPELLALLEQHQVTWETSEEDLAVIREHTVDELGINLYYPHRVKAPSRAWHPHTPFHPAWYYEPFELPGRRMNASRGWEIYPQIIFDMAMRIKNDYRNIPWFVAESGMGVENEGQFRNREGVIDDSYRIRFISEHLWHTLRAREAGANCQGYMLWAFTDNVSPMNAFKNRYGLIEIDLQNHRARRAKASAHWFRQLGERRELVLDEGHHHHHH | soluble
MGSDKIHHHHHHMNYPSLVWHLKRTELFADFELAELEQVAATTPYRSYQPGEVIYRMDDPADALYFVRSGLVKISKLFPNGKEAILGVVGQHDTFGELLLQPEERRPTQAEALERTTLIVLPRQELQKLLSTKPDLAMKLIRLMAARLFEAQAWTATVSAYSAPERVASLLYRLAREFGRPHSQGVELNLKLNQEDIARMVGATRETVSHSLSRLKKGGAIVRARSPIIVQMDALKAFIDQEH | not soluble
MYKIMPLKVAEISVPLGVTIMMGDMRVMATGPVYVWVIDGGDEKIVVDSGVEEAKNGMFHGFPGKGGGEKGLREAMEKVNLKPEDVDKLIITHLHFDHAANAKLFTNARIYVQKREWESALNPPLHYRQTYDSSMLYPLEEMDLCLIDGDVEIAEGVKAVLLPGHTKGLQGVAVETEKGTYLLAADHFYTYFNFFPPKQPIQMTDTAGNTVEIPTSPLPFLPPGLHVDLSEWYESCFKALSVAKKANILPGHDPSLEGRVFPLEHHHHHH | not soluble
MKDFWTWERLSFHMVLAYNDDRSFLINTGMPLDLTLRNQEMKKFAGDRAIFRSEDSIEMLRKAGFTPDDIDYVALTPVQDYTIGRLNEFRKSKIFIFRDGWIKDIAAPAYAYFHNRDLFIPKNIFDFVYGEGWKNIIFYDGETELVPGIRAIPVGCHHRSSVAFAINAKDGTYVFTDASFKAENVRNRIPIGIAENIYECLSAYEKIEKIGKLLPAYDPAIDDLYIKLEHHHHHH | soluble
DKPLSNMKILTLGKLSRNKDEVKAMIEKLGGKLTGTANKASLCISTKKEVEKMNKKMEEVKEANIRVVSEDFLQDVSASTKSLQELFLAHILSSWGAEVK | soluble
MGSDKIHHHHHHMPLDLDTALSSHQPLSLNERKLLDILRRRGAITRATVSAEMDLAQQSVHRLIEELISRGLLRSGERVKNGRGQPSPRIELVNEAVYAIGVSINTDSAVVCVADLGCNVLEQVTLRTPPLSRNSTLDSLAKTIERMLQRNGIETDRVIGMGFAIAGFFLENRQINAPEPLRDWSLIDLQPVLEERFGMPVWLENNATTAAIGESLVGVGAWASNFIYLSFNFGFGAGVVINGKPYFGSHGNAGEITLYNDEESINRPALRYLLEELHQKGVQVDSIEDLRLRFDPNWPGVDTWLKRIQPTLDRLVNALAGLFDPQAVVFGGQLPAELGKRLIAATTFWGTHRYNSPPPRPRLLLSETNGDAAAIGAALVPLKERFFV | not soluble
DELLALASIYDGDEFRKAESVQGGETRIYLDLPQNFKIFVSGNSNECLQNSGFEYTICFLPPLVLNFELPPDYPSSSPPSFTLSGKWLSPTQLSALCKHLDNLWEEHRGSVVLFAWMQFLKEETLAYLRIRLLTKPERKLSWLLPPLSNN | not soluble
MSLKIIIAGAGNVGTHLAKLLSREKQDIILMDDDEEKLSALSANFDLLTVTASPSSISGLKEVGVKEADLFIAVTPDESRNMTACMLATNLGAKKTVARIDNYEYLLPKNKEFFRKLGVDSLIYPEMLAAKEIVSSMRMSWVRQWWEFCGGALILIGTKMREKAEILNIPLHQLGAPDIPYHVVAIKRGTETIIPRGDDVIKLHDIVYFTTTRKYIPYIRKIAGKEDYADVRNVMIMGGSRIAVRTAQYVPDYMQVKIVDNDINRCNRLTELLDDKTMIINGDGRDMDLLIEEGLKNTEAFVALTDNSETNILACLAAKRMGVEKTVAEVENIDYIGMAESLDIGTVINKKMIAASHIYQMMLDADVSNVKCLTFANADVAEFTVPAGAKITKNLIKDLGLPKGTTIGGMIRNGEGVLVTGDTLIRPGDHVVVFCLSMMIKKIEKFFNEGHHHHHH | soluble
MGSDKIHHHHHHMTEITTLTQFLSTANTQFQVYDLGRRVQHIDMMAFSQIEALQAPYPSPIQGHAQFAIVFWDDSNQHFIWFLKLPLDERGLLSPAPRTQFIRMVIEALGSDPTQALSQDQQDTLANHPFAFKPSAEKLALFNALVRKQLGLPASAQYEFAYQYLSGQVSPERWQDVGLQGLADICVRAAALDHNEQLLNALEHSADEVKIALCQQLEHITLDAPLAERLLSAFYQGSPEQKLYYLRALASAPALAQQAIQYLDEQDALDDNALITIAGRNWTALKDDQTRKIYLEALAKQPQGFFNQIFADIVAIPAIRTQLLMALRDSERSQALANAIGGLFRVTKA | not soluble
PKRSDARLPQVAAFSYVEDLLQAGVHVHLYTNGFLHSKLIMVDSQVASIGSTNMDFRSLENNFEFNGIIYDEPTVHRLEAIFFEDLLQSEPLDLKRWRKRSRIKKFSESFVRLFSPLL | not soluble
MKVVPAQRCVYSFSANMAPVEEVYPGEQVVFETLDALGGSYDKIDFSKVNPATGPVFVNGVKPGDTLKVRIKRIELPRRGMIVTGKGFGVLGDEVEGFHTKELEIEKWAVLFDGVRIPIHPMVGVIGVAPQEGEYPTGTAHRHGGNMDTKEITENVTVHLPVFQEGALLALGDVHATMGDGEVCVSACEVPAKVVVEIDVSKEEIKWPVVETNDAYYIIVSLPDIEEALKEVTRETVWFIQRRKTIPFTDAYMLASLSVDVGISQLVNPAKTAKARIPKYIFTGVLEHHHHHH | not soluble
MSYPSLFAPLDLGFTTLRNRVLMGSMHTGLEEHPDGAERLAAFYAERARHGVALIVTGGIAPVPSGVVMTGGAMLNDASQLTPHRVVTDAVHAQGGKIALQILHTGRYSYQPHLVAPSAIQAPINRFMPHELTHDEILQLIDDFAHCAQLAREAGYDGVEVMGSEGYLINEFLTRRTNHRDDEWGGDYASRMRFAVEVVRAVRQRVGNDFIIIYRLSMLDLVENGGTFDETVQLAQAIEAAGASLINTGIGWHEARIPTIATPVPRGAFSWVTRKLKGHVSVPLIATNRINDPQVAETILTRGDADMVSMARPFLADAEFLTKAQSGRADEINTCIGCNQACLDRIFIGKVTSCLVNPRACHETHMPITPAIRKKNLAVVGAGPAGLAFAINAASRGHHVTLFDAQSEIGGQFTIARQIPGKEEFYETLRYYRRMIDVTGVTLKLNQRVNAEDLQPFDEAILACGIVPRRPPIDGIDHPKALTYLEVLRDKAPVGKRVAIIGCGGIGFDTAMYLSQHGESTSQNIAEFCTEWGIDTSLQQAGGLRPEGPRLARSPRQIVMLQRKTSKPGEGLGKTTGWIHRATLLARGVKMIPAVSYQKIDDDGLHLLIGGEPQLLEVDHVVICAGQEPRRELADPLRAAGKTVHLIGGCDVAMELDARRAIAQGTRLALEI | not soluble
MVDGQPSLQQVLERVDEWMAKEGLLDPNVKSIFVTCGDWDLKVMLPGQCQYLGLPVADYFKQWINLKKAYSFAMGCWPKNGLLDMNKGLSLQHIGRPHSGIDDCKNIANIMKTLAYRGFIFKQTSKPF | not soluble
MNRRDFLQFGLRGIVVAGLGKGFYNTTSEQVEIVRTSVKIRNLPAALQGLKIGLLTDLHASFVVSSETIRSAGRLLMAEKPDLIVMTGDYISGSTRFLSGSVGQFKKEYLSKCIDALSGLKAPLGIYGVLGNHDFWSGPESVKAICEAFTRQMGMVWLRNSSVEIRRGRGSLHLLGVDDYWEPSCSLAAACKGVDTDGIKILLSHNPDINDEIFLLRERIDLVLSGHTHGGQVVVPFLGQPVMPSKFGQKYRAGLVRDGDRQTYISRGVGCLLAPIRLNCPPEATVLTLTLEHHHHHH | soluble
MDNPSKEIDLLLQSSYDMTILTKQGEYNVDSMLSRAHHVASRISSMYKYEKLLQDMQDLTVNGNRRKLILNDLQRENKQIMALQDENRQLRETTQEYLATMRNILDSHAEIEGSIEMGQMNSDIDDADIDRIIFEMANTDQEARLKKKALEMELMMDDLEKMRKEEYQELQLAVQRNKNYKELFKLACFSNQSANSILNSAMKIISEGDGFDDDEAQENEDLNETIIHKKQ | not soluble
MSQNDLNKEKALVVFSGGQDSTTCLFYAKKHFKEVELVTFNYGQRHDKEIEVAKKIAKEQNLKHHILDMSLLSQLTPNALTQHELSIEDNDDGIPNTFVPARNLLFLSFAGALAYQIHAKHIITGVCETDFSGYPDCRDSFIKSMNVTLSLSMDKDFVIHTPLMWLDKAQTWALSDKLGVLDYIRHNTLTCYNGIIGDGCGECPACHLRARGLKHYLEHKGEE | not soluble
MSLNGGVTELSVWSGFTENDGKVVQSIADDFNKSQSNVKVTIEQNPWNVINDKLLSSISAGNGPDVVTYQPDGAKGFIKQGAIVSTDDFYSDSSNETSHYRKNVVKDGEVDGKHYGVPMGHAPYSVYFNKAIFDAAGITEDQYPKTWDDLAALASKLTVDKDGDGTPDQYGIALADKDAGYLPIFLQGAGTDLVVDGKANLTSKKSKDTLTWIRDNFYAKKSSPSNLSLVDAQTLFCSGKAAMFWIGPWIVNAAKEKGIETGTFEMPKGPEKQVTEVAANYWYTTSQVDGNDAKKKAAYAWMKFFNNKKNQITWAVKANYPPNRTDVTADDMKSNNFVSQISPYMDHSSLLLGSVPSGFADVQSELNALGPKISESTGDLTDILQKSNDKIQGYIEEGHHHHHH | soluble
FSVEELSEILESHSIRLELQPILELETGRVGAAEGLLRINLDGTDVPTGQFVQSVEQAGLAPKLDIAVMREGINHIERLRAVCPTFSLALNLSGYSLSSAKIREELRAEFRARDLPRGSIRFEITETAPIEDIDAAKEFVQMLKDFGFHIVIDDFGAGHEPYQYLKKFDFSVLKIAGEFIEGMVTNRVDRSIVESIAQLAKDEEMETVAEFVSSKEILEAVREIGVTYAQGFHIGKSKPIDEFIATYLETNQTATWG | not soluble
